Assay in all cases: cell-based or functional assay
One experiment has as its target T1, human NPRA (human, UniProt P16066 33-1061).
T1 sequence (looked up): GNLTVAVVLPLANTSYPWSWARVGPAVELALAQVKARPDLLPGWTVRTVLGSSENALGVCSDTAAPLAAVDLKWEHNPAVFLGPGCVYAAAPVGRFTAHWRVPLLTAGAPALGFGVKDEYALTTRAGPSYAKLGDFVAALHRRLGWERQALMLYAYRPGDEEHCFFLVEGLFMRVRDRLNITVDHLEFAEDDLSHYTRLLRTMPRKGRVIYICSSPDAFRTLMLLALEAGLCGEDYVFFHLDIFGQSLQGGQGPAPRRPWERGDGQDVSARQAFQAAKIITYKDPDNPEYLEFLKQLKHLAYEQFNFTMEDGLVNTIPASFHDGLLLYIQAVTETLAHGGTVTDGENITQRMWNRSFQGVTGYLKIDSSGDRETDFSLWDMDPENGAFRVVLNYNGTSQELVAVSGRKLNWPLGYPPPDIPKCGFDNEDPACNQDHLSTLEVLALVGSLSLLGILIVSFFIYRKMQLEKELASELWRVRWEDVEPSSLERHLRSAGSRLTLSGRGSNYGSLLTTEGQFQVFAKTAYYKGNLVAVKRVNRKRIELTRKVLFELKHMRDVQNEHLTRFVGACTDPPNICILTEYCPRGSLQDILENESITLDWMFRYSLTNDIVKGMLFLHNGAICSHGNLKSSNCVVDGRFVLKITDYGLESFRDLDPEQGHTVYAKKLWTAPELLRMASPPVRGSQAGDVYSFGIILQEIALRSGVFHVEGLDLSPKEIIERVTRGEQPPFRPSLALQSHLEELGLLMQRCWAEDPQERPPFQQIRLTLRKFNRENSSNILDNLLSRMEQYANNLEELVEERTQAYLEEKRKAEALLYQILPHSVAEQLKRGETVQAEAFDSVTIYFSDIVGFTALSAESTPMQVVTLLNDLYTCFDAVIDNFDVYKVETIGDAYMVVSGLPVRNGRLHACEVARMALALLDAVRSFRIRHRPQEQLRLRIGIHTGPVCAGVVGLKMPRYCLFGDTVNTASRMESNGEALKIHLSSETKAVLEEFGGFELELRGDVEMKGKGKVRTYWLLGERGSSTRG

Another experiment deals with T2, rat ANP receptor (NPR-A) (rat, UniProt P18910 29-1057).
T2 sequence (looked up): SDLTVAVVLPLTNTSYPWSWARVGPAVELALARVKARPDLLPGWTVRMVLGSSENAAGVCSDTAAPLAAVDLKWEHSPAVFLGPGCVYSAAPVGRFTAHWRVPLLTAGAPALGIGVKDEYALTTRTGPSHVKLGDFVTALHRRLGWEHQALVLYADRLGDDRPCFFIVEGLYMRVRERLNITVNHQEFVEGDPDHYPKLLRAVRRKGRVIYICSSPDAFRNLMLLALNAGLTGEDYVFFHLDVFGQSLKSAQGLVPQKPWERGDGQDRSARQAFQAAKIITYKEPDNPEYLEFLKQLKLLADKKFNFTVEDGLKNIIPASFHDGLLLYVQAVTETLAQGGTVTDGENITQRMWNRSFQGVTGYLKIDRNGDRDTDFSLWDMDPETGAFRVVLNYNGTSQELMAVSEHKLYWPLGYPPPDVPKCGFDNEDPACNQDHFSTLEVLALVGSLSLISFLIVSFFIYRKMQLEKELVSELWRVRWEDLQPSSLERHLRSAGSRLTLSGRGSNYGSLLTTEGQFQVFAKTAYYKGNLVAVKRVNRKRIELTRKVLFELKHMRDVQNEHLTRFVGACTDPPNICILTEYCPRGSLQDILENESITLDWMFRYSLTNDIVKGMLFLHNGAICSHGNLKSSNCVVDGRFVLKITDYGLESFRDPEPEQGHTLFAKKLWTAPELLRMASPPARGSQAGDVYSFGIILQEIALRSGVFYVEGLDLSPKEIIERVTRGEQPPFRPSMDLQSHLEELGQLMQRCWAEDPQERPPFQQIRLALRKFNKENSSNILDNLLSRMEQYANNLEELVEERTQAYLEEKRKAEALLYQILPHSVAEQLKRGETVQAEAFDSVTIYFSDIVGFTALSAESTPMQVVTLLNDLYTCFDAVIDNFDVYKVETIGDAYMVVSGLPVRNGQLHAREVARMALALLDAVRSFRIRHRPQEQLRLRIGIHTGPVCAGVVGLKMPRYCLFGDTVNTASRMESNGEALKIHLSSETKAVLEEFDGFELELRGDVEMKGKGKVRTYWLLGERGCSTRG

The target of another experiment is T3, rat CNP receptor (NPR-B) (rat, UniProt P16067 17-1047).
T3 sequence (looked up): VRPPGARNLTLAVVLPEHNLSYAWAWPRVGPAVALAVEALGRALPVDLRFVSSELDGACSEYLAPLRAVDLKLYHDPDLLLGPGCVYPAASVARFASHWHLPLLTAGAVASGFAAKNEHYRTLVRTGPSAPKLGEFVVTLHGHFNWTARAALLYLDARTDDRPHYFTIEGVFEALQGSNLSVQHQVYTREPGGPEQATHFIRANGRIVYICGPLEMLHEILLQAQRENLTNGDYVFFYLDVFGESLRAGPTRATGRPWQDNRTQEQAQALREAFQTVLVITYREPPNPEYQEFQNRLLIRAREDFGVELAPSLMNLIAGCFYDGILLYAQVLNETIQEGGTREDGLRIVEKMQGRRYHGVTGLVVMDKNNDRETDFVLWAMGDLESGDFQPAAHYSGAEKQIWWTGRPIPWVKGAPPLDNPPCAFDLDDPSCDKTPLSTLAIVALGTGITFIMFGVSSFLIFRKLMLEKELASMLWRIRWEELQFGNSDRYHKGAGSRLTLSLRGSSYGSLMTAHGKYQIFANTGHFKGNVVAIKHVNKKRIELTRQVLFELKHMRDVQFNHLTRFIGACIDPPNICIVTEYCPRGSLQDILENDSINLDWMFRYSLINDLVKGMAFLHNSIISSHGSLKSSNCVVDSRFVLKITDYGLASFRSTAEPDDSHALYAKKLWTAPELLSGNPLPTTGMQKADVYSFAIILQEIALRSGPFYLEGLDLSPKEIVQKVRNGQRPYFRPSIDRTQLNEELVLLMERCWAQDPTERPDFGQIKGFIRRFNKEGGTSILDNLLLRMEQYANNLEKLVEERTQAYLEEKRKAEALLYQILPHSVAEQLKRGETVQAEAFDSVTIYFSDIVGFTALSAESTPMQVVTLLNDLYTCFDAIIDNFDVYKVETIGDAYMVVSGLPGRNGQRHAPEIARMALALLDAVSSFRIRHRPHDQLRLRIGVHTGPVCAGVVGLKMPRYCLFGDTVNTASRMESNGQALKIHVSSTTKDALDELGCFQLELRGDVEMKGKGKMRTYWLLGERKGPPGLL

“And” between values parts separate entries of the source, which are not always exact repeats. Equal values may be shown once.

B1: TPP-10361 (antibody, human IgG1, lambda)
heavy: not shown
light: QSVLTQPPSVSGAPGQRVTISCTGSSSNIGAGYDVHWYQQLPGTAPKLLIYGSGSGSGSGSGSPDGGSGGSLRRSSCFGGRMDRIGAQSGLGCNSFRYGSYGSGGSGSGSGNRPSGVPDRFSGSKSGTSASLAITGLQAEDEADYYCQSYDSSLSGVVFGGGTKLTVLGQPKAAPSVTLFPPSSEELQANKATLVCLISDFYPGAVTVAWKADSSPVKAGVETTTPSKQSNNKYAASSYLSLTPEQWKSHRSYSCQVTHEGSTVEKTVAPTECS
B1: in the experiment with human NPRA, the “rel. logEC50 pcs 5” value was -0.1.

B2: TPP-10355 (antibody, human IgG1, lambda)
heavy: not shown
light: QSVLTQPPSVSGAPGQRVTISCTGSSSNIGAGYDVHWYQQLPGTAPKLLIYGNSNRPSGVPDRFSGSKSGTSASLAITGLQAEDEADYYCAAWNPNPNPNPNPNGGSGGSLRRSSCFGGRMDRIGAQSGLGCNSFRYGSNPNPNPNPNPNVFGSGTKVTVLGQPKAAPSVTLFPPSSEELQANKATLVCLISDFYPGAVTVAWKADSSPVKAGVETTTPSKQSNNKYAASSYLSLTPEQWKSHRSYSCQVTHEGSTVEKTVAPTECS
With B2, in the experiment with human NPRA, the “average rel logEC50” value was -0.2, the “rel. logEC50 pcs 2” value is -0.6, the “rel. logEC50 pcs 3” value is 0.2 and the “rel. logEC50 pcs 4” value is -0.3.

B3: TPP-11156 (antibody, human IgG1, lambda)
heavy: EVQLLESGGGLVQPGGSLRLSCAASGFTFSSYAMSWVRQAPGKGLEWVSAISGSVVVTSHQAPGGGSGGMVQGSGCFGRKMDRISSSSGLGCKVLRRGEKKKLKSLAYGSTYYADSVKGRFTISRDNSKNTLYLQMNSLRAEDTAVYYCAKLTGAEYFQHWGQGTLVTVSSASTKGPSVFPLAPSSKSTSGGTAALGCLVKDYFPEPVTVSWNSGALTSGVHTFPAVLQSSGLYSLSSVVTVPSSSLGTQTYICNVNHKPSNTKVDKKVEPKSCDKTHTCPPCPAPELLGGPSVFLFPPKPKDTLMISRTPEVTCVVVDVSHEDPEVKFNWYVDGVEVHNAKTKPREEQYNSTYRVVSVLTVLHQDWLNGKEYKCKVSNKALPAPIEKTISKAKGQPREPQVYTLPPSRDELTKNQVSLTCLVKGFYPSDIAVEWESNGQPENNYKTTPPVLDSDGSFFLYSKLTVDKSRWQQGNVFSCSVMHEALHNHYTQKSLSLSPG
light: QSVLTQPPSVSGAPGQRVTISCTGSSSNIGAGYDVHWYQQLPGTAPKLLIYGNSNRPSGVPDRFSGSKSGTSASLAITGLQAEDEADYYCQSYDSSLSGVVFGGGTKLTVLGQPKAAPSVTLFPPSSEELQANKATLVCLISDFYPGAVTVAWKADSSPVKAGVETTTPSKQSNNKYAASSYLSLTPEQWKSHRSYSCQVTHEGSTVEKTVAPTECS
Take B3: the “EC50, fluorescence of cGMP reporter cells” value (“EC50, fluorescence” below) in the experiment with rat ANP receptor (NPR-A) amounted to 1200 nM.

B4: TPP-13054 (antibody, human IgG1, lambda)
heavy: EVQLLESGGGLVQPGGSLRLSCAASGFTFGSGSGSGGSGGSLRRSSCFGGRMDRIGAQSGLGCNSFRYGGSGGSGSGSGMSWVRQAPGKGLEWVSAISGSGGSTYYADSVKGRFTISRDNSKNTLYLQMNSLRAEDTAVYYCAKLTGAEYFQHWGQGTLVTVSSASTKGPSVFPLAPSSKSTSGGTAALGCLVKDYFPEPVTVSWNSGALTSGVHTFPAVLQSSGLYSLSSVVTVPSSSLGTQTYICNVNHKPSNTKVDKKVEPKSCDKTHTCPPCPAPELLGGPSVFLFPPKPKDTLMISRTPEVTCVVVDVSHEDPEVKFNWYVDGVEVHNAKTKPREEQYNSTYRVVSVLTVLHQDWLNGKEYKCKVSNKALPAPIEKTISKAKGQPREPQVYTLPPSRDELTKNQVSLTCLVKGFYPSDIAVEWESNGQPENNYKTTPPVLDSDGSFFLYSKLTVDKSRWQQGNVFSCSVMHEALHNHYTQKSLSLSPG
light: QSVLTQPPSVSGAPGQRVTISCTGSSSNIGAGYDVHWYQQLPGTAPKLLIYGNSNRPSGVPDRFSGSKSGTSASLAITGLQAEDEADYYCQSYDSSLSGVVFGGGTKLTVLGQPKAAPSVTLFPPSSEELQANKATLVCLISDFYPGAVTVAWKADSSPVKAGVETTTPSKQSNNKYAASSYLSLTPEQWKSHRSYSCQVTHEGSTVEKTVAPTECS
On to B4, for which, in the experiment with human NPRA, the “average rel logEC50” value is -0.8; the “rel. logEC50* pcs” value was -0.7 and -0.8.

B5: TPP-10290 (antibody)
heavy: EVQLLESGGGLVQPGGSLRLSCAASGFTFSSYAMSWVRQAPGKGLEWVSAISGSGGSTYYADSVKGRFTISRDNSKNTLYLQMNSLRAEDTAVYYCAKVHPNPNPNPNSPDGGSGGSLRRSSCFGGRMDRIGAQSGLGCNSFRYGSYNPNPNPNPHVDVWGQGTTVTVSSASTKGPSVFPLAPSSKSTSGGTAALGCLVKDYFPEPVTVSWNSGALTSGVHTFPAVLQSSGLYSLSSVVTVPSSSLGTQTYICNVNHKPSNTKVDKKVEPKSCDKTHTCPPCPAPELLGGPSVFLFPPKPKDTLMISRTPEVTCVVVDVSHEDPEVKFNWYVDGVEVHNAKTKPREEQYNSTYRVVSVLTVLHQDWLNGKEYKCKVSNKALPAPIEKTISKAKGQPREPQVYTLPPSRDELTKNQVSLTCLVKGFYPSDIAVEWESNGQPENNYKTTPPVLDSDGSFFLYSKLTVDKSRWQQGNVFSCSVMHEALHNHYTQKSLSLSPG
light: QSVLTQPPSVSGAPGQRVTISCTGSSSNIGAGYDVHWYQQLPGTAPKLLIYGNSNRPSGVPDRFSGSKSGTSASLAITGLQAEDEADYYCQSYDSSLSGVVFGGGTKLTVLGQPKAAPSVTLFPPSSEELQANKATLVCLISDFYPGAVTVAWKADSSPVKAGVETTTPSKQSNNKYAASSYLSLTPEQWKSHRSYSCQVTHEGSTVEKTVAPTECS
In the case of B5, in the experiment with human NPRA, the “average rel logEC50” value is -0.5, the “rel. logEC50 pcs 1” value is -0.8 and the “rel. logEC50 pcs 2” value was -0.1.

B6: TPP-13230 (antibody)
heavy: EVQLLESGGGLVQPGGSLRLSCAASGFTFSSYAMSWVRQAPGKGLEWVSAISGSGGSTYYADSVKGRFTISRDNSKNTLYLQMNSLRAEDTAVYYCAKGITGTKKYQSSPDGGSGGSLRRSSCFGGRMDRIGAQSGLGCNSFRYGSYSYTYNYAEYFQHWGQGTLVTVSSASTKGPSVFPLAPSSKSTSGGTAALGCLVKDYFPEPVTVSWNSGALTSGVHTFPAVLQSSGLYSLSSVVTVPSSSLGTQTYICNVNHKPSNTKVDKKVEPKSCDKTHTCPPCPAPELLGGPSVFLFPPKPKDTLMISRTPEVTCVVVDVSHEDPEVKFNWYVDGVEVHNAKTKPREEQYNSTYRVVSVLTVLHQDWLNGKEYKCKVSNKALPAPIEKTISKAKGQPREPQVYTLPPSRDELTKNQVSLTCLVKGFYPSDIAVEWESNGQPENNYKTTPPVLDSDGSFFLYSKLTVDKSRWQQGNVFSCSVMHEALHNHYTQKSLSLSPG
light: QSVLTQPPSVSGAPGQRVTISCTGSSSNIGAGYDVHWYQQLPGTAPKLLIYGNSNRPSGVPDRFSGSKSGTSASLAITGLQAEDEADYYCQSYDSSLSGVVFGGGTKLTVLGQPKAAPSVTLFPPSSEELQANKATLVCLISDFYPGAVTVAWKADSSPVKAGVETTTPSKQSNNKYAASSYLSLTPEQWKSHRSYSCQVTHEGSTVEKTVAPTECS
On to B6, for which the “rel. logEC50 pcs 9” value with human NPRA was -0.3.

B7: TPP-9902 (antibody)
heavy: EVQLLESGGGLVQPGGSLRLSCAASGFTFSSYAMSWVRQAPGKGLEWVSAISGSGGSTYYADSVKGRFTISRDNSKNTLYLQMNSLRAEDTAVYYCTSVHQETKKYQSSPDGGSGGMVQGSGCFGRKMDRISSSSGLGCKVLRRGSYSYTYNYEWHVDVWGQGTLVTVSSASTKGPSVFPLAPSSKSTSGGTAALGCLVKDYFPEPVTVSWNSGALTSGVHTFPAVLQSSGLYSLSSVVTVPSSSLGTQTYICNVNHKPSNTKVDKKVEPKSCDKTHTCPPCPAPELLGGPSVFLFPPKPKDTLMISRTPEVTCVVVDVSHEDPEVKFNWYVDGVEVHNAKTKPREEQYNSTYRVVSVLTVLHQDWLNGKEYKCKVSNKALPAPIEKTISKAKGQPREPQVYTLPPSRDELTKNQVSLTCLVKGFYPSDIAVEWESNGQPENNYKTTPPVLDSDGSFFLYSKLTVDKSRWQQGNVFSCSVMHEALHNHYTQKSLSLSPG
light: QSVLTQPPSVSGAPGQRVTISCTGSSSNIGAGYDVHWYQQLPGTAPKLLIYGNSNRPSGVPDRFSGSKSGTSASLAITGLQAEDEADYYCQSYDSSLSGVVFGGGTKLTVLGQPKAAPSVTLFPPSSEELQANKATLVCLISDFYPGAVTVAWKADSSPVKAGVETTTPSKQSNNKYAASSYLSLTPEQWKSHRSYSCQVTHEGSTVEKTVAPTECS
Take B7: the “EC50, fluorescence” value with rat ANP receptor (NPR-A) is 2300 nM.

B8: TPP-10992 (antibody, human IgG4 S228P, lambda)
heavy: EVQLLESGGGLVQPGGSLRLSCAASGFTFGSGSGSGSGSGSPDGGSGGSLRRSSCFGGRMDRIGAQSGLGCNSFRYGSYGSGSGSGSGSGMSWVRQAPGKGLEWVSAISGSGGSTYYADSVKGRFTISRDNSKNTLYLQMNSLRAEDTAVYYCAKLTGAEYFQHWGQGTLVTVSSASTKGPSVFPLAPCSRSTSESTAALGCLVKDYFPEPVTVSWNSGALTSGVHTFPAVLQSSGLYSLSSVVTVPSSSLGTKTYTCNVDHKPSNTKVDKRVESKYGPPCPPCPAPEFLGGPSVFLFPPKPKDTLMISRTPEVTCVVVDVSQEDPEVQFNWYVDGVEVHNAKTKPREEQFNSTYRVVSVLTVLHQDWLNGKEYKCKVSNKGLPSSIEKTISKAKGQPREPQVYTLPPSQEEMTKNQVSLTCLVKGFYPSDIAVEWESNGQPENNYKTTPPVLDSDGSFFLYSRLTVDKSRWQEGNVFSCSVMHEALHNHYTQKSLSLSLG
light: QSVLTQPPSVSGAPGQRVTISCTGSSSNIGAGYDVHWYQQLPGTAPKLLIYGNSNRPSGVPDRFSGSKSGTSASLAITGLQAEDEADYYCQSYDSSLSGVVFGGGTKLTVLGQPKAAPSVTLFPPSSEELQANKATLVCLISDFYPGAVTVAWKADSSPVKAGVETTTPSKQSNNKYAASSYLSLTPEQWKSHRSYSCQVTHEGSTVEKTVAPTECS
For B8, the “EC50, fluorescence” value with rat ANP receptor (NPR-A) was 180 nM.

B9: TPP-10294 (antibody, human IgG1, lambda)
heavy: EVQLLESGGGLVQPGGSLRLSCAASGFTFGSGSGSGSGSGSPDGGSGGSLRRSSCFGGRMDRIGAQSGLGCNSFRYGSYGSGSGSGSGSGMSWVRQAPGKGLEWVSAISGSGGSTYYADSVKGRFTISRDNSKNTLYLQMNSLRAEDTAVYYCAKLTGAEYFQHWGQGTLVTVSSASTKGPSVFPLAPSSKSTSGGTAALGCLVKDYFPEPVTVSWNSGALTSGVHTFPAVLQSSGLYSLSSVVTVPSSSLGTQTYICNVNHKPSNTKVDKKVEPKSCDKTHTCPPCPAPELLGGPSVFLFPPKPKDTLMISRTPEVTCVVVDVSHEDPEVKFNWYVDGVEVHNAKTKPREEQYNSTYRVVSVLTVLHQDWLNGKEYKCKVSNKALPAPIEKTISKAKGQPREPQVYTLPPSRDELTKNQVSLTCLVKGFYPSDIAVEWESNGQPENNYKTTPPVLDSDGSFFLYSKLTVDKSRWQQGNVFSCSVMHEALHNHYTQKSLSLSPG
light: QSVLTQPPSVSGAPGQRVTISCTGSSSNIGAGYDVHWYQQLPGTAPKLLIYGNSNRPSGVPDRFSGSKSGTSASLAITGLQAEDEADYYCQSYDSSLSGVVFGGGTKLTVLGQPKAAPSVTLFPPSSEELQANKATLVCLISDFYPGAVTVAWKADSSPVKAGVETTTPSKQSNNKYAASSYLSLTPEQWKSHRSYSCQVTHEGSTVEKTVAPTECS
In the case of B9, in the experiment with human NPRA, the “average rel logEC50” value is -0.3; the “rel. logEC50* pcs” value was -0.5 and -0.6 and -0.4; the “rel. logEC50 pcs 4” value was -0.2; the “rel. logEC50 pcs 7” value stood at 0.

B10: TPP-9465 (antibody)
heavy: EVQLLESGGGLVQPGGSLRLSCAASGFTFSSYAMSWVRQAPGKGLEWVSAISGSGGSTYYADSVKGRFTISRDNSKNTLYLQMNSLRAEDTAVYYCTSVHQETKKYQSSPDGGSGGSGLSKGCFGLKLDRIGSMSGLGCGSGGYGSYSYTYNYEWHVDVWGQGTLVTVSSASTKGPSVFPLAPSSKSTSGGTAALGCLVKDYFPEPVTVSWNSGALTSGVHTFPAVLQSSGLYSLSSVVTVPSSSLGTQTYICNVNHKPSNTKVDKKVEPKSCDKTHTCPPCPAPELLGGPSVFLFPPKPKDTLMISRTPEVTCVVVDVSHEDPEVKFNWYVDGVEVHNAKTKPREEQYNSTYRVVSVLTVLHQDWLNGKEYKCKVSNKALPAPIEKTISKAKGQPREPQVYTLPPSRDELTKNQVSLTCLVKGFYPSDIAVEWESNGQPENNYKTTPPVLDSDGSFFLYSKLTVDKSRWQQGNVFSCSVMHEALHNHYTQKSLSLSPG
light: QSVLTQPPSVSGAPGQRVTISCTGSSSNIGAGYDVHWYQQLPGTAPKLLIYGNSNRPSGVPDRFSGSKSGTSASLAITGLQAEDEADYYCQSYDSSLSGVVFGGGTKLTVLGQPKAAPSVTLFPPSSEELQANKATLVCLISDFYPGAVTVAWKADSSPVKAGVETTTPSKQSNNKYAASSYLSLTPEQWKSHRSYSCQVTHEGSTVEKTVAPTECS
Regarding B10, in the experiment with rat CNP receptor (NPR-B), the “EC50, luminescence of cGMP reporter cells” value is 5.2 nM.
